The values below come from patent publication US20080274976A1.

“And” between values parts separate entries of the source, which are not always exact repeats. Equal entries are not always repeated.

For test [1], the target named is TSha1 K+ channel from trout (trout). In words: open channel binding, ratio of Table III values.
Test [2] shares this target. In words: closed channel binding, ratio of Table III values.
Another test has as its target Shaker-Δ6-46 K+ channel (UniProt P08510). Description: comparison of open- and closed-state KD, voltage clamp in Xenopus oocytes.

TSha1 K+ channel from trout (trout), sequence (Q9I830 whole entry): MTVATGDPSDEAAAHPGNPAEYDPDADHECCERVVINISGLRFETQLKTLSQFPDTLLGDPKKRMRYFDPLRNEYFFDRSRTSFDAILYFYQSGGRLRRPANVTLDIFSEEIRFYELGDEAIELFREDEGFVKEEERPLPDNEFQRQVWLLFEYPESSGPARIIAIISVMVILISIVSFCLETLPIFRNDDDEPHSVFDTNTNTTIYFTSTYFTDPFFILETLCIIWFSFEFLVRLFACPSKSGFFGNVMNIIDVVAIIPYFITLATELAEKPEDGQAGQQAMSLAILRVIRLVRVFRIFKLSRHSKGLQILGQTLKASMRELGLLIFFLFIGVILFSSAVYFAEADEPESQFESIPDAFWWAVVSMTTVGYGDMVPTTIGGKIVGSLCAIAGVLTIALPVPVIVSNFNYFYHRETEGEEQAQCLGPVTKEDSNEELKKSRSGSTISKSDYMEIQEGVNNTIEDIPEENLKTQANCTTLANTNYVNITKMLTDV
Shaker-Δ6-46 K+ channel, sequence (P08510 other isoform, or with tags, fused parts or gaps mutant): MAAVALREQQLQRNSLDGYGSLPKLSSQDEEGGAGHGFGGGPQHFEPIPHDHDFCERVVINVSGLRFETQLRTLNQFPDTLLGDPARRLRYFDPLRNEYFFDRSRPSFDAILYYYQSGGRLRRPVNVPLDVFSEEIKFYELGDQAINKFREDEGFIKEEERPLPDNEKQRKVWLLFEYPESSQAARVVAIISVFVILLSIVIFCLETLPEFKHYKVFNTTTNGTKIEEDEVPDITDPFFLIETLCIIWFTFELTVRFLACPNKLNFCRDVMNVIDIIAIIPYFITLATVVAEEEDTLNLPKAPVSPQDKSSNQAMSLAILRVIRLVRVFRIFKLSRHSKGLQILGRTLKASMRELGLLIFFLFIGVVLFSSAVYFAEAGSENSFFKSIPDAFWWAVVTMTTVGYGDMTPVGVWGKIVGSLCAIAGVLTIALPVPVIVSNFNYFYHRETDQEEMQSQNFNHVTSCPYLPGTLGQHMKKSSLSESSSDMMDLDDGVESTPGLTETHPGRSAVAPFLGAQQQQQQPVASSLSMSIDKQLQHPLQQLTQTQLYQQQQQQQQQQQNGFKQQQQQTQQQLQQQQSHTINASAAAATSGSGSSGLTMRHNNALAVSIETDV

Consider κM-conotoxin RIIIK (peptide), for which, in test [1], the fold higher k(O)on than in the Shaker-Δ6-46 channel turned out to be 3 fold and the fold smaller k(O)off than in the Shaker-Δ6-46 channel was 20 fold. Moreover, the fold higher k(C)on than in the Shaker-Δ6-46 channel in test [2] was determined as 4 fold. In the test with Shaker-Δ6-46 K+ channel, the fold lower affinity for the open state (0 mV) than for the closed state is 3 fold and 4 fold.
